Earlier results on one substance are cited in publication PMC12005733.

The term Kd denotes the equilibrium constant for the complex coming apart.

This series addresses Calbindin D9k C-terminal split part C-terminal half (Bos taurus) (UniProt P02633).

As to “Calbindin D9k N-terminal split part N-terminal half (from UniProt P02633)”, the Kd was 3 pM.
